Reference: US20190309092A1

Molecular target: TNFα (UniProt P01375)
Experiment: SPR, Biacore T100, single-cycle kinetics, 1:1 Langmuir fit; Target 1 column

Sequence of UniProt P01375 (P01375 77-233 limits assumed): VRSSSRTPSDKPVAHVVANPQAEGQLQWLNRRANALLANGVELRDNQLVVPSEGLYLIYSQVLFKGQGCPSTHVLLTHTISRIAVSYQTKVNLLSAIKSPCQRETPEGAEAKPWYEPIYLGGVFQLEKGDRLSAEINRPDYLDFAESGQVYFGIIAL

## Humira IgG(Full) (antibody)
  Kd: 0.0643 nM
